In patent US20160376353A1 (DECIMMUNE THERAPEUTICS, published 2016):
Values belong to the binder of their own block, whether it stands above or below them. Ends that are not written are not given here.

What was measured:
[1] = target: T1, N2 peptide (non-muscle myosin neo-epitope N2 12mer sequence); assay: SPR (BIACORE X100), IgG capture and direct immobilization of antibody, N2 peptide in solution
T1 construct: also called N2 12-mer peptide
T1 peptide: LMKNMDPLNDNV
From the text: (§1) The remaining sequences represent the germline sequences with the highest homology that encode productive antibody. All of the humanized sequences maintain the murine 21G6 CDR regions which are shown inside the boxes in FIG. 1. The humanized variable regions were cloned into a vector containing wild type human IgG1, human IgG1 containing a mutation at amino acid 297 (Asn 297 to Q297), human IgG4 containing a mutation at amino acid 228 (serine to proline) and human kappa light chain. Each antibody (heavy and light) combination was expressed by transient co-transfection in 293A cells (in the presence of low Ig serum). The antibody containing supernatants were collected and analyzed for binding to the N2 peptide by ELISA and BIACORE™ X100 system. All experiments were performed using a BIACORE™ X100 system. […]

[2] = target: T2, Biotin-labeled N2 peptide (also: biotin label, position not given here); assay: SPR (BIACORE X100), biotin-N2 peptide on NeutrAvidin chip, antibody in solution; upper end of the printed range 2.0-5.2
T2 construct: also called immobilized N2
T2 peptide: LMKNMDPLNDNV
From the text: as §1

[3] = target: T2, Biotin-labeled N2 peptide; assay: SPR (BIACORE X100), biotin-N2 peptide on NeutrAvidin chip, antibody in solution; kd/ka (monovalent)
From the text: (§2) The remaining sequences represent the germline sequences with the highest homology that encode productive antibody. All of the humanized sequences maintain the murine 21G6 CDR regions which are shown inside the boxes in FIG. 1. The humanized variable regions were cloned into a vector containing wild type human IgG1, human IgG1 containing a mutation at amino acid 297 (Asn 297 to Q297), human IgG4 containing a mutation at amino acid 228 (serine to proline) and human kappa light chain. Each antibody (heavy and light) combination was expressed by transient co-transfection in 293A cells (in the presence of low Ig serum). The antibody containing supernatants were collected and analyzed for binding to the N2 peptide by ELISA and BIACORE™ X100 system. All experiments were performed using a BIACORE™ X100 system. For antibody capture experiments, a CM5 chip was prepared by 10 ul/minute injection of EDC/NHS (N-ethyl-N′-(3-dimethylaminopropyl) carbodiimide (EDC), N-hydroxysuccinimide (NHS) for 7 minutes, followed by a 10 ul/minute injection of anti-human Fc (GE Lifesciences) at a concentration of 25 ug/ml in sodium acetate at pH 5 for 3 minutes. Ethanolamine-HCl was injected for 7 minutes at 10 ul/minute. The chimeric or humanized antibodies were captured onto flow cell 2 and N2 peptide at varying concentrations was flowed over flow cells 1 and 2 at a rate of 30 ul/minute with a contact time of 120 seconds and a dissociation period of 120 seconds. Complete removal of captured antibody was accomplished by regeneration with 3M MgCl2 for 30 seconds at a flow rate of 10 ul/minute. For peptide immobilized experiments, a CM5 chip was prepared by 10 ul/minute injection of EDC/NHS (N-ethyl-N′-(3-dimethylaminopropyl) carbodiimide (EDC), N-hydroxysuccinimide (NHS) for 7 minutes, followed by a 10 ul/minute injection of NEUTRAVIDIN® protein (ThermoFisher Pierce) at a concentration of 5 ug/ml in sodium acetate, pH 5 to an immobilization response of 100-200RU. Ethanolamine-HCl was injected for 7 minutes at 10 ul/minute. Biotin-labeled N2 peptide was captured on flow channel 2 with the goal of an experimental Rmax of about 50-100RU. Purified chimeric or humanized antibodies were flowed over both flow channels at a rate of 30 ul/min for a contact time of 120 seconds and allowed to dissociate for 600 seconds.

[4] = target: T2, Biotin-labeled N2 peptide; assay: SPR (BIACORE X100), biotin-N2 peptide on NeutrAvidin chip, antibody in solution; upper end of the printed range 3-6.5
From the text: as §1

[5] = target: T2, Biotin-labeled N2 peptide; assay: SPR (BIACORE X100), biotin-N2 peptide on NeutrAvidin chip, antibody in solution; steady state affinity
From the text: as §2, with “The” for “The remaining sequences represent the germline sequences with the highest homology that encode productive antibody. All of the humanized sequences maintain the murine 21G6 CDR regions which are shown inside the boxes in FIG. 1. The”

[6] = target: T2, Biotin-labeled N2 peptide; assay: SPR (BIACORE X100), biotin-N2 peptide on NeutrAvidin chip, antibody in solution; upper end of the printed range 2.0-3.2
From the text: as §1

[7] = target: T2, Biotin-labeled N2 peptide; assay: SPR (BIACORE X100), biotin-N2 peptide on NeutrAvidin chip, antibody in solution; upper end of the printed range 8.6-9.1
From the text: as §1

[8] = target: T2, Biotin-labeled N2 peptide; assay: SPR (BIACORE X100), biotin-N2 peptide on NeutrAvidin chip, antibody in solution; upper end of the printed range 1.5-4.3
From the text: as §1

[9] = target: T2, Biotin-labeled N2 peptide; assay: SPR (BIACORE X100), biotin-N2 peptide on NeutrAvidin chip, antibody in solution; upper end of the printed range 4.3-6.5
From the text: as §1

[10] = target: T2, Biotin-labeled N2 peptide; assay: SPR (BIACORE X100), biotin-N2 peptide on NeutrAvidin chip, antibody in solution; upper end of the printed range 1-11
From the text: as §1

[11] = target: T2, Biotin-labeled N2 peptide; assay: SPR (BIACORE X100), biotin-N2 peptide on NeutrAvidin chip, antibody in solution; upper end of the printed range 5-53
From the text: as §1

[12] = target: T1, N2 peptide (non-muscle myosin …); assay: SPR (BIACORE X100), immobilized antibody, N2 peptide in solution; lower end of the printed range 4-6 uM
From the text: as §1

[13] = target: T1, N2 peptide (non-muscle myosin …); assay: SPR (BIACORE X100), antibody captured by anti-human Fc, N2 peptide in solution
From the text: as §2

[14] = target: T2, Biotin-labeled N2 peptide; assay: SPR (BIACORE X100), biotin-N2 peptide on NeutrAvidin chip, antibody in solution; upper end of the printed range 7-19
From the text: as §1

[15] = target: T2, Biotin-labeled N2 peptide; assay: SPR (BIACORE X100), biotin-N2 peptide on NeutrAvidin chip, antibody in solution; upper end of the printed range 7-10
From the text: as §1

Kd [1]: 6000 to 11000 nM
B1: H4-21G6 / L2-21G6, human IgG1 N297Q (antibody, V domains shown)
VH: QVQLVQSGAEVKKPGASVKVSCKASGYTFTSYYMYWVRQAPGQGLEWMGGINPSNGGTNFNEKFKSRVTMTTDTSTSTAYMELRSLRSDDTAVYYCTRWGYDREWFAYWGQGTLVTVSS
VL: DIVMTQSPLSLPVTPGEPASISCRSSKSLLHSNGNTYLYWFLQKPGQSPQLLIYRMSNLASGVPDRFSGSGSGTDFTLKISRVEAEDVGVYYCMQHLEYPFTFGQGTKLEIKR
notes: also called H4/L2 N297Q

Kd [3]: 140 nM | Kd [5]: 680 nM
B6: H2-21G6 / L3-21G6 (Table 2, constant region not stated) (antibody, V domains shown)
VH: QVQLVQSGAEVKKPGASVKVSCKASGYTFTSYYMYWVRQAPGQGLEWIGGINPSNGGTNFNEKFKSKATMTVDKSTSTAYMELRSLRSDDSAVYYCTRWGYDREWFAYWGQGTLVTVSS
VL: DIVMTQTPLSLSYTPGQPASISCRSSKSLLHSNGNTYLYWFLQKPGQSPQLLIYRMSNLASGVPDRFSGSGSGTDFTLKISRVEAEDVGVYYCMQHLEYPFTFGQGTKLEIKR
notes: human kappa light chain; also called H2/L3

Kd [3]: 200 to 400 nM | kon [10]: 110000 M⁻¹ s⁻¹ | koff [11]: 0.053 s⁻¹ | Kd [5]: 313 to 540 nM | Kd [12]: 4000 to 6000 nM
B7: Murine 21G6 antibody (antibody, V domains shown)
VH: QVQLQQPGAELVKPGASVKLSCKASGYTFTSYYMYWVKQRPGQGLEWIGGINPSNGGTNFNEKFKSKATLTVDKSSSTAYMQLSSLTSEDSAVYYCTRWGYDREWFAYWGQGTLVTVSA
VL: DIVMTQAAPSVPVTPGESVSISCRSSKSLLHSNGNTYLYWFLQRPGQSPQVLIYRMSNLASGVPDRFSGSGSGTAFTLRISRVEAEDVGVYYCMQHLEYPFTFGSGTKLEIKR
notes: also called m21G6

Kd [3]: 800 nM | Kd [5]: 113 nM | Kd [13]: 4100 nM
B8: Chimeric 21G6, human heavy chain constant region IgG4 (antibody, V domains shown)
VH: QVQLQQPGAELVKPGASVKLSCKASGYTFTSYYMYWVKQRPGQGLEWIGGINPSNGGTNFNEKFKSKATLTVDKSSSTAYMQLSSLTSEDSAVYYCTRWGYDREWFAYWGQGTLVTVSA
VL: DIVMTQAAPSVPVTPGESVSISCRSSKSLLHSNGNTYLYWFLQRPGQSPQVLIYRMSNLASGVPDRFSGSGSGTAFTLRISRVEAEDVGVYYCMQHLEYPFTFGSGTKLEIKR
notes: Human IgG4 constant region; also called CHIgG4 / Ch; ch21G6 IgG4

Kd [3]: 100 to 200 nM | koff [14]: 0.019 s⁻¹ | Kd [5]: 196 to 240 nM | Kd [13]: 5600 nM | kon [15]: 100000 M⁻¹ s⁻¹
B9: Chimeric 21G6, human heavy chain constant region IgG1 with Q297 mutation (antibody, V domains shown)
VH: QVQLQQPGAELVKPGASVKLSCKASGYTFTSYYMYWVKQRPGQGLEWIGGINPSNGGTNFNEKFKSKATLTVDKSSSTAYMQLSSLTSEDSAVYYCTRWGYDREWFAYWGQGTLVTVSA
VL: DIVMTQAAPSVPVTPGESVSISCRSSKSLLHSNGNTYLYWFLQRPGQSPQVLIYRMSNLASGVPDRFSGSGSGTAFTLRISRVEAEDVGVYYCMQHLEYPFTFGSGTKLEIKR
notes: Human IgG1 constant region with Asn 297 to Gln; also called ch21G6 N297Q

More lines, now with the values behind:

B2: H3-21G6 / L1-21G6 (Table 2, constant region not stated) (antibody, V domains shown)
VH: QVQLVQSGAEVKKPGSSVKVSCKASGYTFTSYYMYWVRQAPGQGLEWIGGINPSNGGTNFNEKFKSKATITVDKSTSTAYMELSSLRSEDTAVYYCTRWGYDREWFAYWGQGTLVTVSS
VL: DIVMTQSPATLSVSPGERATISCRSSKSLLHSNGNTYLYWFQQKPGQPPKVLIYRMSNLASGVPARFSGSGSGTDFTLTISSVEPEDFATYYCMQHLEYPFTFGGGTKLEIKR
notes: human kappa light chain; also called H3/L1
kon [2]: 52000 M⁻¹ s⁻¹ | Kd [3]: 300 nM | koff [4]: 0.0065 s⁻¹ | Kd [5]: 280 nM

B3: H2-21G6 / L2-21G6 (Table 2, constant region not stated) (antibody, V domains shown)
VH: QVQLVQSGAEVKKPGASVKVSCKASGYTFTSYYMYWVRQAPGQGLEWIGGINPSNGGTNFNEKFKSKATMTVDKSTSTAYMELRSLRSDDSAVYYCTRWGYDREWFAYWGQGTLVTVSS
VL: DIVMTQSPLSLPVTPGEPASISCRSSKSLLHSNGNTYLYWFLQKPGQSPQLLIYRMSNLASGVPDRFSGSGSGTDFTLKISRVEAEDVGVYYCMQHLEYPFTFGQGTKLEIKR
notes: human kappa light chain; also called H2/L2
Kd [3]: 280 to 420 nM | kon [6]: 32000 M⁻¹ s⁻¹ | koff [7]: 0.0091 s⁻¹ | Kd [5]: 240 nM

B4: H1-21G6 / L1-21G6 (Table 2, constant region not stated) (antibody, V domains shown)
VH: QVQLVQSGAEVVKPGASVKLSCKASGYTFTSYYMYWVKQAPGQGLEWIGGINPSNGGTNFNEKFKSKATLTVDKSASTAYMELSSLRSEDTAVYYCTRWGYDREWFAYWGQGTLVTVSS
VL: DIVMTQSPATLSVSPGERATISCRSSKSLLHSNGNTYLYWFQQKPGQPPKVLIYRMSNLASGVPARFSGSGSGTDFTLTISSVEPEDFATYYCMQHLEYPFTFGGGTKLEIKR
notes: human kappa light chain; also called H1/L1
kon [8]: 43000 M⁻¹ s⁻¹ | Kd [3]: 100 to 430 nM | koff [9]: 0.0065 s⁻¹ | Kd [5]: 320 nM

B5: H1-21G6 / L3-21G6 (Table 2, constant region not stated) (antibody, V domains shown)
VH: QVQLVQSGAEVVKPGASVKLSCKASGYTFTSYYMYWVKQAPGQGLEWIGGINPSNGGTNFNEKFKSKATLTVDKSASTAYMELSSLRSEDTAVYYCTRWGYDREWFAYWGQGTLVTVSS
VL: DIVMTQTPLSLSYTPGQPASISCRSSKSLLHSNGNTYLYWFLQKPGQSPQLLIYRMSNLASGVPDRFSGSGSGTDFTLKISRVEAEDVGVYYCMQHLEYPFTFGQGTKLEIKR
notes: human kappa light chain; also called H1/L3
Kd [3]: 1580 nM | Kd [5]: 1000 nM
